# Assay results: US20030148956A1 (PROCTER AND GAMBLE, published 2003)
# T1: corticotropin releasing factor 2 receptor
# T1 sequence (Q13324 whole entry, species assumed, looked up): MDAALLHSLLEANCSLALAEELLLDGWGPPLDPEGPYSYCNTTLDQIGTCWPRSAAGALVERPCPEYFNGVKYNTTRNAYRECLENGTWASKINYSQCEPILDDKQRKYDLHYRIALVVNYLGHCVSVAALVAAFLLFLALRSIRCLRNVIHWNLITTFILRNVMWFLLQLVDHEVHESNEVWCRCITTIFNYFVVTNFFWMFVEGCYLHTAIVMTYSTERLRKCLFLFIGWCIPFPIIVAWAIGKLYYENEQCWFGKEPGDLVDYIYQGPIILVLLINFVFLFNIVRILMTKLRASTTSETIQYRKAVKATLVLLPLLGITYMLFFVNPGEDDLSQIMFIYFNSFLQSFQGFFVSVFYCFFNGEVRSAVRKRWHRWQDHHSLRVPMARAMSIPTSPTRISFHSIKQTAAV
# How the values were obtained:
# [1] = target: corticotropin releasing factor 1 receptor; assay: cell-based or functional assay
# [2] = target: T1, corticotropin releasing factor 2 …; assay: cell-based or functional assay
CRF1R EC50 [1],CRF1R Emax % [1],CRF2R EC50 [2],CRF2R Emax % [2],Binder
587 nM,80%,13.2 nM,100%,ZGPPISIDLPLHLLRKMIEIEKQEKEKQQATTNARLLDRV (C-terminal amide) [SEQ ID NO 239]
1000 nM,34%,18.8 nM,100%,ZGPPISIDLPLQLLEKMIEIEKQEKEKQQATTNARLLDRV (C-terminal amide) [SEQ ID NO 247]
381 nM,100%,7.5 nM,93%,ZGPPISIDLPLYLLRKMIEIEKQEKEKQQAANNALLLATI (C-terminal amide) [SEQ ID NO 245]
708 nM,6%,100 nM,36%,ZGPPISIDVPIGLLRKMIEIEKQEKEKQQAANNRLLLDTI (C-terminal amide) [SEQ ID NO 254]
219 nM,100%,8.1 nM,100%,ZGPPISIDLPFYLLRKMIEIEKQEKEKQQAANNALLLDTI (C-terminal amide) [SEQ ID NO 230]
138 nM,99%,19.7 nM,100%,ZGPPISIDLPFQLLRKMIEIEKQEKEKQQAANNRLLLATI (C-terminal amide) [SEQ ID NO 250]
94 nM,100%,5.9 nM,100%,ZGPPISIDLPFYLLRKMIEIEKQEKEKQQAANNALLLATI (C-terminal amide) [SEQ ID NO 231]
926 nM,80%,11.8 nM,100%,ZGPPISIDLPFQLLRKMIEIEKQEKEKQQAANNALLLDTI (C-terminal amide) [SEQ ID NO 251]
1000 nM,50%,12.2 nM,92%,ZGPPISIDLPLQLLEKMIEIEKQEKEKQQAANNALLLATI (C-terminal amide) [SEQ ID NO 249]
806 nM,70%,25.7 nM,100%,ZGPPISIDLPLELLRKMIEIEKQEKEKQQAANNALLLDTI (C-terminal amide) [SEQ ID NO 235]
1000 nM,15%,40.4 nM,97%,ZGPPISIDLPIYLLRKMIEIEKQEKEKQQAANNALLLDTI (C-terminal amide) [SEQ ID NO 236]
1000 nM,27%,26.9 nM,100%,ZGPPISIDLPQYLLRKMIEIEKQEKEKQQAANNALLLDTI (C-terminal amide) [SEQ ID NO 224]
226 nM,100%,22.3 nM,100%,ZGPPISIDLPTYLLRILIEIEKQEKEKQQAANNRLLLDTI (C-terminal amide) [SEQ ID NO 252]
63.6 nM,81%,4.1 nM,98%,ZGPPISIDLPYFLLRKMIEIEKQEKEKQQAANNRLLLDTI (C-terminal amide) [SEQ ID NO 220]
220 nM,97%,4.8 nM,89%,ZGPPISIDLPYYLLRKMIEIEKQEKEKQQAANNALLLATI (C-terminal amide) [SEQ ID NO 225]
308 nM,99%,12.6 nM,99%,ZGPPISIDLPLHLLRKMIEIEKQEKEKQQAANNALLLATI (C-terminal amide) [SEQ ID NO 241]
1000 nM,18%,22.2 nM,93%,ZGPPISIDLPIYLLRKMIEIEKQEKEKQQAANNALLLATI (C-terminal amide) [SEQ ID NO 237]
300 nM,100%,8.8 nM,98%,ZGPPISIDLPLYLLRKMIEIEKQEKEKQQAANNALLLDTI (C-terminal amide) [SEQ ID NO 244]
1000 nM,32%,19.6 nM,98%,ZGPPISIDLPLQLLRKMIEIEKQEKEKQQAANNALLLDTI (C-terminal amide) [SEQ ID NO 248]

# More lines, now with the values behind:
Binder,CRF1R EC50 [1],CRF1R Emax % [1],CRF2R EC50 [2],CRF2R Emax % [2]
ZGPPISIDLPLHLLRKMIEIEKQEKEKQQATTNARLLDTV (C-terminal amide) [SEQ ID NO 238],753 nM,88%,16.7 nM,100%
ZGPPISIDLPLYLLRKMIEIEKQEKEKQQATTNARLLDRV (C-terminal amide) [SEQ ID NO 243],440 nM,96%,16.8 nM,100%
ZGPPISIDLPLQLLRKMIEIEKQEKEKQQATTNARLLDTV (C-terminal amide) [SEQ ID NO 246],1000 nM,33%,38.8 nM,100%
ZGPPISIDLPLYLLRKMIEIEKQEKEKQQATTNARLLDTV (C-terminal amide) [SEQ ID NO 242],358 nM,99%,29 nM,94%
ZGPPISIDLPLWLLRKMIEIEKQEKEKQQAANNRLLLDTI (C-terminal amide) [SEQ ID NO 218],98.4 nM,100%,4.8 nM,96%
ZGPPISIDLPQYLLRKMIEIEKQEKEKQQAANNALLLATI (C-terminal amide) [SEQ ID NO 227],918 nM,18%,33.6 nM,95%
ZGPPISIDVPTYLLRKMIEIEKQEKEKQQAANNRLLLDTI (C-terminal amide) [SEQ ID NO 253],1000 nM,42%,41.8 nM,86%
ZGPPISIDLPFQLLRILIEIEKQEKEKQQAANNRLLLDTI (C-terminal amide) [SEQ ID NO 255],33.3 nM,84%,7 nM,100%
ZGPPISIDLPAFLLRKMIEIEKQEKEKQQAANNRLLLDTI (C-terminal amide) [SEQ ID NO 222],384 nM,95%,9.4 nM,100%
ZGPPISIDLPHFLLRKMIEIEKQEKEKQQAANNRLLLDTI (C-terminal amide) [SEQ ID NO 219],80.9 nM,100%,7.8 nM,98%
ZGPPISIDLPFFLLRKMIEIEKQEKEKQQAANNRLLLDTI (C-terminal amide) [SEQ ID NO 223],48.1 nM,81%,3 nM,92%
ZGPPISIDLPLELLRKMIEIEKQEKEKQQAANNALLLATI (C-terminal amide) [SEQ ID NO 234],434 nM,96%,20.6 nM,100%
ZGPPISIDLPTYLLRKMIEIEKQEKEKQQAANNALLLATI (C-terminal amide) [SEQ ID NO 233],1000 nM,11%,46.1 nM,95%
ZGPPISIDLPFHLLRKMIEIEKQEKEKQQAANNALLLDTI (C-terminal amide) [SEQ ID NO 228],276 nM,100%,7.1 nM,100%
ZGPPISIDLPTYLLRKMIEIEKQEKEKQQAANNALLLDTI (C-terminal amide) [SEQ ID NO 232],1000 nM,7%,45.3 nM,100%
ZGPPISIDLPLHLLRKMIEIEKQEKEKQQAANNALLLDTI (C-terminal amide) [SEQ ID NO 240],915 nM,80%,22 nM,100%
ZGPPISIDLPQFLLRKMIEIEKQEKEKQQAANNRLLLDTI (C-terminal amide) [SEQ ID NO 221],236 nM,100%,8.5 nM,100%
ZGPPISIDLPFHLLRKMIEIEKQEKEKQQAANNALLLATI (C-terminal amide) [SEQ ID NO 229],298 nM,100%,10.3 nM,100%
ZGPPISIDLPYYLLRKMIEIEKQEKEKQQAANNALLLDTI (C-terminal amide) [SEQ ID NO 226],315 nM,95%,7.6 nM,100%
